Assay results: patent publication US20120282269A1 (Boehringer Ingelheim, published 2012)
Where a chain is given by its changes, count along the chain named. “And” between values parts separate entries of the source, which are not always exact repeats. Identical values can stand only once.

T1: recombinant human IL-23 (human, UniProt P29460 23-328)
T1 sequence 1: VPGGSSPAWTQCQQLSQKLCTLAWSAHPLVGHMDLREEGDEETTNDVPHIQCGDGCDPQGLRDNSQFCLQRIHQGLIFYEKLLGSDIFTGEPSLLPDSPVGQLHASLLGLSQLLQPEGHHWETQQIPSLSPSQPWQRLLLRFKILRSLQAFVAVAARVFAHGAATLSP
T1 sequence 2: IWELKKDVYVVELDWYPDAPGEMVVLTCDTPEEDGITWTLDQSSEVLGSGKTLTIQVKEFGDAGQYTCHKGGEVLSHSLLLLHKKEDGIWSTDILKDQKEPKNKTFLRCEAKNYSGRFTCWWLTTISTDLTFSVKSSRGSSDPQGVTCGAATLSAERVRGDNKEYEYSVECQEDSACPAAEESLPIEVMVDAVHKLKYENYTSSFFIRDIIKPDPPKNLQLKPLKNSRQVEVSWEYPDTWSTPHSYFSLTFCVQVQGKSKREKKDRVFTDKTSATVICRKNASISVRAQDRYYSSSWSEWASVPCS

T2: natural human IL-23 from activated THP-1 cells (human, UniProt P29460 23-328)
T2 sequence 1: T1 sequence 1
T2 sequence 2: T1 sequence 2

B1: 18C4 (antibody, V domains shown)
VH: EVQLQQSGPEVVKPGASVKMSCKASGYTFTSSVIHWVKQKAGQGLEWIGYINPYNDGTKYNEKFKGKATLTSDRSSSTAYMELSSLTSEDSAVYYCTRRLDEAYWGQGTLVTVSA
VL: DIVMTQSPATLSVTPGDRVSLSCRASQSISEYLHWYQQKSHESPRLLIKYASQSISGIPSRFSGSGSGSDFTLSINSVEPEDVGVYYCQNGHSFPFTFGSGTKLEIK
B2: 24A5 (antibody, V domains shown)
VH: B1 VH with V11L, S31T, V33I, I34M, A41P, N55D, G57V, R74K, T97V, L100W
VL: B1 VL with D17N, E31D, D70N
B3: 31H9 (antibody, V domains shown)
VH: EVQLQQSGPELVKPGASVKMSCKASGYTFTRYLMHWVKQKPGQGLEWIGYINPYNDGTNYNEKFKGKATLTSDKSSSTAYMELSSLTSEDSAVYYCSLNWDYAYWGQGTLVTVSA
VL: B1 VL with E31D, F96Y, S100G
B4: Chimeric 22E2 (antibody, V domains shown)
VH: B1 VH with V11L, V33I, K40R, A41P, N55D, G57V, R74K, T97A, L100W, A103S
VL: B1 VL with E31V, H41P
B5: 22E2 (antibody, V domains shown)
VH: B1 VH with V11L, V33I, K40R, A41P, N55D, G57V, R74K, T97A, L100W, A103S
VL: B1 VL with E31V, H41P
B6: 18D3 (antibody, V domains shown)
VH: B3 VH with M34I, N59K, S97T, L98S, Y102L, A103D, L110T, V111L, A115S
VL: B1 VL with E31D, H34Y, Y50F, S63T, N76D, E81D, Y86F, Y87F, S100G
B7: 73H10 (antibody, V domains shown)
VH: B3 VH with L33V, G57V, N59K, K74R, E82K, S97A, L98R, Y102V, A103P, V111I
VL: DIQMTQSPVFLSASVGETVTITCRASENIDSYLAWYQQKQGKSPQLLVFAARNLADGVPSRFSGSGSGTQYSLKINRMQSEDVARYYCQHYYSTPFTFGSGTKLEIE
B8: 74H3 (antibody, V domains shown)
VH: B3 VH with N59K, K63R, S97A, L98R, Y102V, A103P
VL: DIQMTQSPASLSASVGETVIFTCRASENIDSYLAWYQQKQGKSPQLLVYAATNLADGVPSRFSGSGSGTQYSLKINSLQSEDVARYYCLHYYSTPFTFGSGTELEIK
B9: 27G8 (antibody, V domains shown)
VH: QVQLQQSDAELVKPGASVKISCKVSGYTFTDHTIHWMKQRPEQGLEWIGYIYPRDGYPKFNEKFKGKATLTADKSSSTAYMQLNSLTSEDSAVYFCARRPPYYAMDYWGQGTSVAVSS
VL: DIVLTQSPASLAVSLGQRATISCRASKSVSTSGYSYIHWYQQKPGQPPKFLIYLASNLDSGVPARFSGSGSGTDFTLNIHPVEEEDAATYYCQHSRELPYTFGGGTKLEIK
B10: 26F7 (antibody, V domains shown)
VH: EVQLQQSGPELVKPGASVKISCKASGYTFTDYYMNWVRQSHGESLEWIGDFNHNNDVITYNPKFKGKVTLTVEKSSTTAYMELRSLSSEDSAVYYCARGLRGYYAMDYWGQGTSVTVSS
VL: B9 VL with S30R, T31F, G33D, S35F, I37M, F50L, D59E, H94N
B11: Mouse antibody 6B8 (antibody, V domains shown)
VH: QVQLQQSDAELVKPGTSVKTSCKISGNTFTDQTIHWMKQRPEQGLEWIGYIYPRDDSPKYNENFKGKATLTADKSSSTAYMQLNSLTSEDSAVYFCAIPDRSGYAWFIYWGQGTLVTVSS
VL: DIVMTQSHKFLSTSVGDRVTITCKASRDVAIAVAWYQQKPGQSPKLLLFWASTRHTGVPDRFTGSGSRTDFTLTISNVQSEDLADYFCHQYSSYPFTFGSGTKLEIK
B12: 15C11 (antibody, V domains shown)
VH: EVQLQQSGPVLVKPGASVKMSCKASGYTFTDYYMNWVKQSHGKSLEWIGVIIPYNGGTSYNQKFKGKATLTVDKSSSTAYMELNSLTSEDSAVYYCARDGHRWYFDVWGTGTTVTVSS
VL: DVVMTQTPLSLPVSLGDQASISCRSSQSLVHSNGNTYLHWYLQKPGQSPKLLIYKVSNRFSGVPDRFSGSGSGTDFTLKINRVEAEDLGVYFCSQSTHVPYTFGGGTQLEIK
B13: 18E5 (antibody, V domains shown)
VH: B3 VH with S17A, M34I, N59K, S97T, L98S, Y102L, A103D, L110T, V111L, A115S
VL: B1 VL with E31D, H34Y, Y50F, S63T, N76D, E81D, Y86F, Y87F, S100G
B14: 20E8 (antibody, V domains shown)
VH: B1 VH with V11L, I34M, K59Q, R74K, S75F
VL: B1 VL
B15: 2D1 (antibody, V domains shown)
VH: QVQLKESGPGLVAPSQSLSITCTVSGFSLTTYAISWVRQSPGKGLEWLGVIWTGGGTKYNSALKSRLSISKDNSKSQVFLKMNSLQTDDTARYYCARKDYNYGGAMDYWGQGTSVTVSS
VL: DIVLTQSPGSLAVSLGQRATISCRTSESVYSYGQNFIHWYQQKPGQPPKLLIYRASNLESGIPARFSGSGSRTDFTLTMNPVEADDVATYYCQQTNEDPYTFGGGTKLEIR
B16: 43F5 (antibody, V domains shown)
VH: EVQLQQSGPELVKPGASVKISCRASGYSFTGYYMNWVKQSPEKSLEWIGEIIPTTGGTSYNQKFKAKATLTVDKSSSTAYMQLKSLTSEDSAVYYCARESGGFYWYFDVWGTGTTVTVSS
VL: B12 VL with T7S, Q43L, N81S, Q108K

target: T1, recombinant human IL-23; assay: cell-based or functional assay

Question: For B1, which “IC50, inhibition of IL-17 production from IL-23 stimulated mouse splenocytes” value (“IC50, inhibition of IL-17 production” below) is on record?
Answer: 471 pM

Question: How did the “IC50, inhibition of IL-17 production” value turn out when B2 was run?
Answer: 22 pM and 37 pM

Question: B3 was tested. Which “IC50, inhibition of IL-17 production” value did it give?
Answer: 960 pM

Question: With B4 as the binder, how does the “IC50, inhibition of IL-17 production” value read?
Answer: 100 pM

Question: B5 was tested. Which “IC50, inhibition of IL-17 production” value did it give?
Answer: 61 pM and 130 pM

Question: With B6 as the binder, how does the “IC50, inhibition of IL-17 production” value read?
Answer: 234 pM

Question: B7 was tested. Which “IC50, inhibition of IL-17 production” value did it give?
Answer: 1410 pM

Question: With B8 as the binder, how does the “IC50, inhibition of IL-17 production” value read?
Answer: 1350 pM

Question: With B9 as the binder, how does the “IC50, inhibition of IL-17 production” value read?
Answer: 235 pM

Question: How did the “IC50, inhibition of IL-17 production” value turn out when B10 was run?
Answer: 27 pM

Question: With B11 as the binder, how does the “IC50, inhibition of IL-17 production” value read?
Answer: 13 pM

Question: B12 was tested. Which “IC50, inhibition of IL-17 production” value did it give?
Answer: 126 pM

target: T2, natural human IL-23 from activated …; assay: cell-based or functional assay

Question: For B2, which “IC50, inhibition of IL-17 production” value is on record?
Answer: 85 pM and 31 pM

Question: For B3, which “IC50, inhibition of IL-17 production” value is on record?
Answer: 2000 pM

Question: B13 was tested. Which “IC50, inhibition of IL-17 production” value did it give?
Answer: 9 pM and 13 pM

Question: For B14, which “IC50, inhibition of IL-17 production” value is on record?
Answer: 438 pM and 561 pM

Question: B9 was tested. Which “IC50, inhibition of IL-17 production” value did it give?
Answer: 5000 pM

Question: How did the “IC50, inhibition of IL-17 production” value turn out when B15 was run?
Answer: 2340 pM and 1910 pM and 1600 pM

Question: How did the “IC50, inhibition of IL-17 production” value turn out when B12 was run?
Answer: 232 pM

Question: B16 was tested. Which “IC50, inhibition of IL-17 production” value did it give?
Answer: 8000 pM
